T1: Human ALPP (leucine zipper) (human)
T1 construct: Soluble human ALPP fused to a disulphide stabilised leucine zipper and a His tag; The whole entry is the construct; also called hALPP; PLAP
T1 chain: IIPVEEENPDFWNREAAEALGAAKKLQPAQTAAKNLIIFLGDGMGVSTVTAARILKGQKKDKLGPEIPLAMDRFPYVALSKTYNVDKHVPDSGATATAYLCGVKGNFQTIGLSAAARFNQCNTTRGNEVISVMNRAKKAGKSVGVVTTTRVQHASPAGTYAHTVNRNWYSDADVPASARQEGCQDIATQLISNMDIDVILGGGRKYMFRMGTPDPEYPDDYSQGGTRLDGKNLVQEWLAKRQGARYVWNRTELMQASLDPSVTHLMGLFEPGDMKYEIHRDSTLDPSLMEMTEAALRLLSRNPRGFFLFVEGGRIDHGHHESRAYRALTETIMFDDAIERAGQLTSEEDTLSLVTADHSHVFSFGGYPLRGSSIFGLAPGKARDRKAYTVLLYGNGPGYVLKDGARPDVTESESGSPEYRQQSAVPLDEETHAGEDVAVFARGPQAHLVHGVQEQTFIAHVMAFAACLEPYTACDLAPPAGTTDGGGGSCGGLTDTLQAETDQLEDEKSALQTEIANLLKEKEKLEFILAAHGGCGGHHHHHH


Molecular target: T1, Human ALPP (leucine zipper)
Test: BLI, KD app (antigen immobilised on AR2G sensor)
Procedure: Binding kinetics were determined using the Biolayer Interferometry (BLI) Octet K2 or R4 system (Sartorius). […] For KD apparent measurements, the ALPP proteins were immobilised in sodium acetate pH5 buffer to AR2G sensors using amine coupling. To measure 1:1 interactions, AHC biosensors were used to immobilise Fc-fused proteins. All assays were conducted in HBS-EP with a plate temperature of 25° C. Ka (M⁻¹s⁻¹), Kd (s⁻¹) and KD (nM) values were determined using Octet Data Analysis High Throughput software (Sartorius) for Biolayer Interferometry.

Kd	kon	Binder
< 0.01 nM	343000 M⁻¹ s⁻¹	D10 A06-hFc (S239C + S442C), mixed linkers (D10 - [G4S]1, A06 - [G4S]3) (Fc fusion, Biparatopic heterodimer; also called #702) chain 1: QVQLVESGGGLVQPGGSLRLSCAASGSIFSVNTMGWYRQAPGKQRDLVAVATSGGTIHYADSVKGRFTISRDNAKNTVYLQMNSLKPEDTAVYYCNLVVPYGMIAGDHDYWGQGTKVTVSSGGGGSEPKSSDKTHTCPPCPAPELLGGPCVFLFPPKPKDTLMISRTPEVTCVVVDVSHEDPEVKFNWYVDGVEVHNAKTKPREEQYNSTYRVVSVLTVLHQDWLNGKEYKCKVSNKALPAPIEKTISKAKGQPREPQVYTLPPSRDELTKNQVSLYCLVKGFYPSDIAVEWESNGQPENNYKTTPPVLDSDGSFFLYSKLTVDKSRWQQGNVFSCSVMHEALHNHYTQKSLCLSPGK chain 2: QVHLVESGGGLVQAGGSLRLSCAASGRTFLSMGWFRQAPGKEREFVAAISWTGGSTGYADSVKGRFTISRESDKETMYLQMNSLKPEDTAVYYCAARGDVYYGGDDATRYKYWGQGTQVTVSSGGGGSGGGGSGGGGSEPKSSDKTHTCPPCPAPELLGGPCVFLFPPKPKDTLMISRTPEVTCVVVDVSHEDPEVKFNWYVDGVEVHNAKTKPREEQYNSTYRVVSVLTVLHQDWLNGKEYKCKVSNKALPAPIEKTISKAKGQPREPQVYTLPPSRDELTKNQVSLTCLVKGFYPSDIAVEWESNGQPENNYKTTPPVLDSDGSFFLTSKLTVDKSRWQQGNVFSCSVMHEALHNHYTQKSLCLSPGK
0.11 nM	465000 M⁻¹ s⁻¹	D10 E06-hFc (S239C + S442C), mixed linkers (D10 - [G4S]1, E06 - [G4S]3) (Fc fusion, Biparatopic heterodimer; also called #703) chain 1: QVQLVESGGGLVQPGGSLRLSCAASGSIFSVNTMGWYRQAPGKQRDLVAVATSGGTIHYADSVKGRFTISRDNAKNTVYLQMNSLKPEDTAVYYCNLVVPYGMIAGDHDYWGQGTKVTVSSGGGGSEPKSSDKTHTCPPCPAPELLGGPCVFLFPPKPKDTLMISRTPEVTCVVVDVSHEDPEVKFNWYVDGVEVHNAKTKPREEQYNSTYRVVSVLTVLHQDWLNGKEYKCKVSNKALPAPIEKTISKAKGQPREPQVYTLPPSRDELTKNQVSLYCLVKGFYPSDIAVEWESNGQPENNYKTTPPVLDSDGSFFLYSKLTVDKSRWQQGNVFSCSVMHEALHNHYTQKSLCLSPGK chain 2: QVHLVESGGGLVQAGGSLRLSCAASRRSFSEYAMGWFRQAPGKEREFVAAIGWSGVIEYADSVKGRFTISRDNAKDTVYLQMNSLKPEDTAVYYCAAGLGIRVVSQTPAYWGQGTQVTVSSGGGGSGGGGSGGGGSEPKSSDKTHTCPPCPAPELLGGPCVFLFPPKPKDTLMISRTPEVTCVVVDVSHEDPEVKFNWYVDGVEVHNAKTKPREEQYNSTYRVVSVLTVLHQDWLNGKEYKCKVSNKALPAPIEKTISKAKGQPREPQVYTLPPSRDELTKNQVSLTCLVKGFYPSDIAVEWESNGQPENNYKTTPPVLDSDGSFFLTSKLTVDKSRWQQGNVFSCSVMHEALHNHYTQKSLCLSPGK
< 0.01 nM	385000 M⁻¹ s⁻¹	D10 E10-hFc (S239C + S442C), mixed linkers (D10 - [G4S]1, E10 - [G4S]3) (Fc fusion, Biparatopic heterodimer; also called #704) chain 1: QVQLVESGGGLVQPGGSLRLSCAASGSIFSVNTMGWYRQAPGKQRDLVAVATSGGTIHYADSVKGRFTISRDNAKNTVYLQMNSLKPEDTAVYYCNLVVPYGMIAGDHDYWGQGTKVTVSSGGGGSEPKSSDKTHTCPPCPAPELLGGPCVFLFPPKPKDTLMISRTPEVTCVVVDVSHEDPEVKFNWYVDGVEVHNAKTKPREEQYNSTYRVVSVLTVLHQDWLNGKEYKCKVSNKALPAPIEKTISKAKGQPREPQVYTLPPSRDELTKNQVSLYCLVKGFYPSDIAVEWESNGQPENNYKTTPPVLDSDGSFFLYSKLTVDKSRWQQGNVFSCSVMHEALHNHYTQKSLCLSPGK chain 2: QVQLVESGGGLVQAGGSLRLSCAVSGRALSDYNIGWFRQAPGKEREFVARKTWDGSSTRYDDSVKGRFTVSIEDAKNTAYLQMSSLKTEDTAVYYCAAGRYSRARGWEYDYWGQGTQVTVSSGGGGSGGGGSGGGGSEPKSSDKTHTCPPCPAPELLGGPCVFLFPPKPKDTLMISRTPEVTCVVVDVSHEDPEVKFNWYVDGVEVHNAKTKPREEQYNSTYRVVSVLTVLHQDWLNGKEYKCKVSNKALPAPIEKTISKAKGQPREPQVYTLPPSRDELTKNQVSLTCLVKGFYPSDIAVEWESNGQPENNYKTTPPVLDSDGSFFLTSKLTVDKSRWQQGNVFSCSVMHEALHNHYTQKSLCLSPGK
0.0202 nM	602000 M⁻¹ s⁻¹	A06 E06-hFc (S239C + S442C), [G4S]1 linkers (Fc fusion, Biparatopic heterodimer; also called #671) chain 1: QVHLVESGGGLVQAGGSLRLSCAASGRTFLSMGWFRQAPGKEREFVAAISWTGGSTGYADSVKGRFTISRESDKETMYLQMNSLKPEDTAVYYCAARGDVYYGGDDATRYKYWGQGTQVTVSSGGGGSEPKSSDKTHTCPPCPAPELLGGPCVFLFPPKPKDTLMISRTPEVTCVVVDVSHEDPEVKFNWYVDGVEVHNAKTKPREEQYNSTYRVVSVLTVLHQDWLNGKEYKCKVSNKALPAPIEKTISKAKGQPREPQVYTLPPSRDELTKNQVSLYCLVKGFYPSDIAVEWESNGQPENNYKTTPPVLDSDGSFFLYSKLTVDKSRWQQGNVFSCSVMHEALHNHYTQKSLCLSPGK chain 2: QVHLVESGGGLVQAGGSLRLSCAASRRSFSEYAMGWFRQAPGKEREFVAAIGWSGVIEYADSVKGRFTISRDNAKDTVYLQMNSLKPEDTAVYYCAAGLGIRVVSQTPAYWGQGTQVTVSSGGGGSEPKSSDKTHTCPPCPAPELLGGPCVFLFPPKPKDTLMISRTPEVTCVVVDVSHEDPEVKFNWYVDGVEVHNAKTKPREEQYNSTYRVVSVLTVLHQDWLNGKEYKCKVSNKALPAPIEKTISKAKGQPREPQVYTLPPSRDELTKNQVSLTCLVKGFYPSDIAVEWESNGQPENNYKTTPPVLDSDGSFFLTSKLTVDKSRWQQGNVFSCSVMHEALHNHYTQKSLCLSPGK
< 0.01 nM	429000 M⁻¹ s⁻¹	A06 E06-hFc (S239C + S442C), mixed linkers (A06 - [G4S]1, E06 - [G4S]3) (Fc fusion, Biparatopic heterodimer; also called #706) chain 1: QVHLVESGGGLVQAGGSLRLSCAASGRTFLSMGWFRQAPGKEREFVAAISWTGGSTGYADSVKGRFTISRESDKETMYLQMNSLKPEDTAVYYCAARGDVYYGGDDATRYKYWGQGTQVTVSSGGGGSEPKSSDKTHTCPPCPAPELLGGPCVFLFPPKPKDTLMISRTPEVTCVVVDVSHEDPEVKFNWYVDGVEVHNAKTKPREEQYNSTYRVVSVLTVLHQDWLNGKEYKCKVSNKALPAPIEKTISKAKGQPREPQVYTLPPSRDELTKNQVSLYCLVKGFYPSDIAVEWESNGQPENNYKTTPPVLDSDGSFFLYSKLTVDKSRWQQGNVFSCSVMHEALHNHYTQKSLCLSPGK chain 2: QVHLVESGGGLVQAGGSLRLSCAASRRSFSEYAMGWFRQAPGKEREFVAAIGWSGVIEYADSVKGRFTISRDNAKDTVYLQMNSLKPEDTAVYYCAAGLGIRVVSQTPAYWGQGTQVTVSSGGGGSGGGGSGGGGSEPKSSDKTHTCPPCPAPELLGGPCVFLFPPKPKDTLMISRTPEVTCVVVDVSHEDPEVKFNWYVDGVEVHNAKTKPREEQYNSTYRVVSVLTVLHQDWLNGKEYKCKVSNKALPAPIEKTISKAKGQPREPQVYTLPPSRDELTKNQVSLTCLVKGFYPSDIAVEWESNGQPENNYKTTPPVLDSDGSFFLTSKLTVDKSRWQQGNVFSCSVMHEALHNHYTQKSLCLSPGK
–	516000 M⁻¹ s⁻¹	A06 E10-hFc (S239C + S442C), [G4S]1 linkers (Fc fusion, Biparatopic heterodimer) chain 1: QVHLVESGGGLVQAGGSLRLSCAASGRTFLSMGWFRQAPGKEREFVAAISWTGGSTGYADSVKGRFTISRESDKETMYLQMNSLKPEDTAVYYCAARGDVYYGGDDATRYKYWGQGTQVTVSSGGGGSEPKSSDKTHTCPPCPAPELLGGPCVFLFPPKPKDTLMISRTPEVTCVVVDVSHEDPEVKFNWYVDGVEVHNAKTKPREEQYNSTYRVVSVLTVLHQDWLNGKEYKCKVSNKALPAPIEKTISKAKGQPREPQVYTLPPSRDELTKNQVSLYCLVKGFYPSDIAVEWESNGQPENNYKTTPPVLDSDGSFFLYSKLTVDKSRWQQGNVFSCSVMHEALHNHYTQKSLCLSPGK chain 2: QVQLVESGGGLVQAGGSLRLSCAVSGRALSDYNIGWFRQAPGKEREFVARKTWDGSSTRYDDSVKGRFTVSIEDAKNTAYLQMSSLKTEDTAVYYCAAGRYSRARGWEYDYWGQGTQVTVSSGGGGSEPKSSDKTHTCPPCPAPELLGGPCVFLFPPKPKDTLMISRTPEVTCVVVDVSHEDPEVKFNWYVDGVEVHNAKTKPREEQYNSTYRVVSVLTVLHQDWLNGKEYKCKVSNKALPAPIEKTISKAKGQPREPQVYTLPPSRDELTKNQVSLTCLVKGFYPSDIAVEWESNGQPENNYKTTPPVLDSDGSFFLTSKLTVDKSRWQQGNVFSCSVMHEALHNHYTQKSLCLSPGK
–	422000 M⁻¹ s⁻¹	A06 F05-hFc (S239C + S442C), [G4S]1 linkers (Fc fusion) chain 1: QVHLVESGGGLVQAGGSLRLSCAASGRTFLSMGWFRQAPGKEREFVAAISWTGGSTGYADSVKGRFTISRESDKETMYLQMNSLKPEDTAVYYCAARGDVYYGGDDATRYKYWGQGTQVTVSSGGGGSEPKSSDKTHTCPPCPAPELLGGPCVFLFPPKPKDTLMISRTPEVTCVVVDVSHEDPEVKFNWYVDGVEVHNAKTKPREEQYNSTYRVVSVLTVLHQDWLNGKEYKCKVSNKALPAPIEKTISKAKGQPREPQVYTLPPSRDELTKNQVSLYCLVKGFYPSDIAVEWESNGQPENNYKTTPPVLDSDGSFFLYSKLTVDKSRWQQGNVFSCSVMHEALHNHYTQKSLCLSPGK chain 2: QVQLVESGGGLVQAGGSLRLSCAASGRAFGDYNIGWFRQAPGKEREFVARRTWDGSSTRYDDSVKGRFTVSIDNAKNTAYLQMNSLKTEDTAVYYCAAGRYSRVRGWEYDYWGQGTQVTVSSGGGGSEPKSSDKTHTCPPCPAPELLGGPCVFLFPPKPKDTLMISRTPEVTCVVVDVSHEDPEVKFNWYVDGVEVHNAKTKPREEQYNSTYRVVSVLTVLHQDWLNGKEYKCKVSNKALPAPIEKTISKAKGQPREPQVYTLPPSRDELTKNQVSLTCLVKGFYPSDIAVEWESNGQPENNYKTTPPVLDSDGSFFLTSKLTVDKSRWQQGNVFSCSVMHEALHNHYTQKSLCLSPGK

— US20260216242A1 (ALMAC DISCOVERY, published 2026)
